Experimental data reported in PMC7048932, “Examining sterically demanding lysine analogs for histone lysine methyltransferase catalysis” (Scientific Reports, 2020).
Blank lines part the entries; values can stand above or below the binder they belong to.

Legend:
GLP (human) = GLP (human) (UniProt Q9H9B1)
G9a (human) = G9a (human) (UniProt Q96KQ7)
[1] = substrate: C[C@H](N)C(=O)N[C@@H](CCCNC(=N)N)C(=O)N[C@H](C(=O)N[C@@H](CCCCN)C(=O)N[C@@H](CCC(N)=O)C(=O)N[C@H](C(=O)N[C@@H](C)C(=O)N[C@@H](CCCNC(=N)N)C(=O)N[C@@H](CCC1CC1N)C(=O)N[C@@H](CO)C(=O)N[C@H](C(=O)NCC(=O)NCC(=O)N[C@@H](CCCCN)C(=O)N[C@@H](C)C(=O)O)[C@@H](C)O)[C@@H](C)O)[C@@H](C)O; test: Enzyme kinetics of G9a-catalyzed methylation (MALDI-TOF MS); format: biochemical, human; settings: other: G9a-catalyzed methylation, MALDI-TOF MS assay; pH 8.0; 37.0 °C
Description: To establish the substrate efficiency of lysine- and KCP-containing histone peptides, we carried out enzyme kinetics analysis, employing the MALDI-TOF MS assays[22].
MALDI-MS methyltransferases activity experiments were performed using a Bruker instrument in the reflectron positive mode. For regular methyltransferase standard conditions experiment which carried out in 30 µL total volume, the mixture contains peptide (100 µM), SAM (200 µM), SETD8 or SETD7 (2 µM), in assay buffer 50 mM Tris at optimal pH 8.0. In case of G9a and GLP, similar conditions were used, except (500 µM) of SAM was added to the reaction mixture. Samples were incubated in an Eppendorf vial 1.5 mL using thermomixer for 1 h at 37 °C. A 5 µL aliquot of the solution was mixed with 5 µL of MeOH, after which 5 µL of this mixture was mixed with 5 µL of α-cyano-4-hydroxycinamic acid matrix (CHCA, 5 mg/mL in 125:125 µL acetonitrile/water). The spots were placed on a stainless steel MALDI plate (MS 96 target ground steel BC of Bruker, Germany). The mass corresponding to one monomethylation observed as +14 Da, dimethylation observed as +28 Da and trimethylation observed as +42 Da. The enzymatic activity was determined by taking the peak areas of each methylation state, including all isotopes and adducts, and was annotated using FlexAnalysis software (Bruker Daltonics, Germany). […] Methylated peptide substrates were repeated five times and the unmethylated substrates were triplicated.

SETD7 (human) = biological target: T1, SETD7 (human) (UniProt Q8WTS6)
T1 sequence: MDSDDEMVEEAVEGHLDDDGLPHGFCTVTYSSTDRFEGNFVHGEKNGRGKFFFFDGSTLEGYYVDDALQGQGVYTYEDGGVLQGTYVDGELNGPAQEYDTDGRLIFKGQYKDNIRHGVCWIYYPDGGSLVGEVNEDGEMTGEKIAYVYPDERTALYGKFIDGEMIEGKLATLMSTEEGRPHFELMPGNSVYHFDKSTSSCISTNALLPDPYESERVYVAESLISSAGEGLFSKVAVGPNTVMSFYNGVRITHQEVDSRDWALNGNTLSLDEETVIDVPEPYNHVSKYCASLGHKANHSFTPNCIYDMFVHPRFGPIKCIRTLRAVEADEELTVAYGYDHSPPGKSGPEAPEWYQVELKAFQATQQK

GLP (human), sequence (Q9H9B1 whole entry): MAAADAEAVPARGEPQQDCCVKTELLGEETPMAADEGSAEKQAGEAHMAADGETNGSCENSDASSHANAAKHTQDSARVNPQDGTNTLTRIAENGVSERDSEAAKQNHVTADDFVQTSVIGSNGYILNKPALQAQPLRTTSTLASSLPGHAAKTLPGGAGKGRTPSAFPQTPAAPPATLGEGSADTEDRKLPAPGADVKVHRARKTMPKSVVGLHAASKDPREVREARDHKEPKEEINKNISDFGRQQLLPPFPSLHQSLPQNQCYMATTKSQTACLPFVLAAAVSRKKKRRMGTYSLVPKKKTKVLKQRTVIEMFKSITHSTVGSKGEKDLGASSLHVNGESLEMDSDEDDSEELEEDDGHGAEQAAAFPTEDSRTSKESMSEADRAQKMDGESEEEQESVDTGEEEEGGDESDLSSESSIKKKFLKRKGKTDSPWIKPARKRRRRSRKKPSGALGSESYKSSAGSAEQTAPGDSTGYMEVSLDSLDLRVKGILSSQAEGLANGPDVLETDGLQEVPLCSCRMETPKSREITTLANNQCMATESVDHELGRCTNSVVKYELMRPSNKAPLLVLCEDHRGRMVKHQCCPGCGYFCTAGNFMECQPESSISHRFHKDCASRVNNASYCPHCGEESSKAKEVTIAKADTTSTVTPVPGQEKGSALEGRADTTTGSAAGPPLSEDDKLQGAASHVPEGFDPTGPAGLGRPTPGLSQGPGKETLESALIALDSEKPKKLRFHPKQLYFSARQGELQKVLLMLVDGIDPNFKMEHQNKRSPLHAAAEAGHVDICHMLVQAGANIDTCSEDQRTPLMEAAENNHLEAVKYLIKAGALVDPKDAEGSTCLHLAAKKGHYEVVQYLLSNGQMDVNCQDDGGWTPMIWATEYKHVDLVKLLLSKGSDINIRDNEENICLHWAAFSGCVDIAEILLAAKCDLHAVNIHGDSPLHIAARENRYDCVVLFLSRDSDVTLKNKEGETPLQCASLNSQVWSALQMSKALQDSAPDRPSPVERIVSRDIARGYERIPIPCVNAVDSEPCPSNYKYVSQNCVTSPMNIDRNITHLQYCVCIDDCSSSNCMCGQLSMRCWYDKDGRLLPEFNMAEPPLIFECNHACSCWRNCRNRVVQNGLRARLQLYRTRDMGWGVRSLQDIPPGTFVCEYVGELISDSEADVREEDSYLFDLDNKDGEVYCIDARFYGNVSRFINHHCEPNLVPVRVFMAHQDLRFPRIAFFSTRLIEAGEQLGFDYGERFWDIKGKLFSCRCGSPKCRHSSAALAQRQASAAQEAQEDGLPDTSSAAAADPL

- IC50 of inhibition of GLP (100 nM) methylation of a 21-mer H3 peptide (residues 1–21, 5 µM) with SAM (20 µM), MALDI-TOF MS (GLP (human)): > 100 µM
- IC50 of inhibition of G9a (100 nM) methylation of a 21-mer H3 peptide (residues 1–21, 5 µM) with SAM (20 µM), MALDI-TOF MS (G9a (human)): > 100 µM
Binder: ARTKQTARYSTGGKA [H3Y9 histone peptide]

B1: G9a (Homo sapiens) (protein)
chain: MAAAAGAAAAAAAEGEAPAEMGALLLEKETRGATERVHGSLGDTPRSEETLPKATPDSLEPAGPSSPASVTVTVGDEGADTPVGATPLIGDESENLEGDGDLRGGRILLGHATKSFPSSPSKGGSCPSRAKMSMTGAGKSPPSVQSLAMRLLSMPGAQGAAAAGSEPPPATTSPEGQPKVHRARKTMSKPGNGQPPVPEKRPPEIQHFRMSDDVHSLGKVTSDLAKRRKLNSGGGLSEELGSARRSGEVTLTKGDPGSLEEWETVVGDDFSLYYDSYSVDERVDSDSKSEVEALTEQLSEEEEEEEEEEEEEEEEEEEEEEEEDEESGNQSDRSGSSGRRKAKKKWRKDSPWVKPSRKRRKREPPRAKEPRGVNGVGSSGPSEYMEVPLGSLELPSEGTLSPNHAGVSNDTSSLETERGFEELPLCSCRMEAPKIDRISERAGHKCMATESVDGELSGCNAAILKRETMRPSSRVALMVLCETHRARMVKHHCCPGCGYFCTAGTFLECHPDFRVAHRFHKACVSQLNGMVFCPHCGEDASEAQEVTIPRGDGVTPPAGTAAPAPPPLSQDVPGRADTSQPSARMRGHGEPRRPPCDPLADTIDSSGPSLTLPNGGCLSAVGLPLGPGREALEKALVIQESERRKKLRFHPRQLYLSVKQGELQKVILMLLDNLDPNFQSDQQSKRTPLHAAAQKGSVEICHVLLQAGANINAVDKQQRTPLMEAVVNNHLEVARYMVQRGGCVYSKEEDGSTCLHHAAKIGNLEMVSLLLSTGQVDVNAQDSGGWTPIIWAAEHKHIEVIRMLLTRGADVTLTDNEENICLHWASFTGSAAIAEVLLNARCDLHAVNYHGDTPLHIAARESYHDCVLLFLSRGANPELRNKEGDTAWDLTPERSDVWFALQLNRKLRLGVGNRAIRTEKIICRDVARGYENVPIPCVNGVDGEPCPEDYKYISENCETSTMNIDRNITHLQHCTCVDDCSSSNCLCGQLSIRCWYDKDGRLLQEFNKIEPPLIFECNQACSCWRNCKNRVVQSGIKVRLQLYRTAKMGWGVRALQTIPQGTFICEYVGELISDAEADVREDDSYLFDLDNKDGEVYCIDARYYGNISRFINHLCDPNIIPVRVFMLHQDLRFPRIAFFSSRDIRTGEELGFDYGDRFWDIKSKYFTCQCGSEKCKHSAEAIALEQSRLARLDPHPELLPELGSLPPVNT
notes: His6 (N); made in house; host or cells: E. coli BL21 (DE3)pLysS-rosetta
- Km [1]: 22.6 ± 5.0 µM
- kcat [1]: 0.0463 ± 0.0005 s⁻¹
- kcat/Km [1]: 2070 M⁻¹ s⁻¹

- IC50 of inhibition of SETD7 (100 nM) methylation of a 21-mer H3 peptide (residues 1–21, 5 µM) with SAM (20 µM), MALDI-TOF MS (SETD7 (human)): > 100 µM
Binder: ARTYQTARKSTGGKA [H3K4 analog histone peptide with tyrosine (Y) at position 4]
